Reference: paper PMC6018903

Target: OsSEC3A_C (amino acids 521-888)-NLuc (rice (Oryza sativa))
Assay: split reporter (BiFC, NanoBiT); split firefly luciferase complementation, NLuc and CLuc fusions under the 35S promoter co-expressed in N. benthamiana leaves, read 3 d after infiltration

fold LUC activity over the negative vector controls: 15 fold
Substance: CLuc-OsSNAP32 (natural protein)
